Here are results for 2 proteins from publication PMC6005685 (Journal of molecular recognition : JMR, 2017).

As usually defined, the stoichiometry N is the number of molecules, sites or subunits per partner or assembly.

Data set [1] concerns the molecule itself. The experiment in a line: cross-linking.
Data set [2] concerns the molecule itself. The experiment in a line: SEC. (In general: SEC sorts molecules by how far they enter the pores of the column.)

B1: 6His-Grb7RA domain (domain or fragment, UniProt Q14451 102-187, looked up)
chain: HVVKVYSEDGACRSVEVAAGATARHVCEMLVQRAHALSDETWGLVECHPHLALERGLEDHESVVEVQAAWPVGGDSRFVFRKNFAK
For B1, the “stoichiometry N” value in data set [1] worked out at 2; in data set [2] it was 3.

B2: GST cleaved Grb7RA domain (domain or fragment)
chain: GSHVVKVYSEDGACRSVEVAAGATARHVCEMLVQRAHALSDETWGLVECHPHLALERGLEDHESVVEVQAAWPVGGDSRFVFRKNFAK
On to B2, for which the “stoichiometry N” value is 3 in data set [1] and 2 in data set [2].
